“Also recorded” adds a separate entry of the source.
What was measured:
[1] = system: RAN translation; assay: Immunoblot of RAN protein levels in HEK293T cells transfected with repeat expansion constructs; assay type: cell-based; conditions: for RAN polyGP levels: HEK293T transiently transfected with G4C2 expansion construct, dose series; for polyLPAC RAN protein levels: CCTG (CCUG) expansion construct; for polyGP RAN protein levels: GGGGCC (G4C2) expansion construct
Text: Diagrams of CAG, CCTG and GGGCC repeat expansion constructs used to test effects of protein kinase R (PKR) on repeat associated non-ATG (RAN) translation are shown in FIG. 1A. Briefly, constructs have a 6× stop-codon cassette (e.g., two stops in each reading frame, upstream of the repeat expansions and C-terminal epitope tags). A diagram of PKR vectors expressing wildtype (PKR-WT), the dominant negative K296R mutant form of PKR (PKR-K296R), or the C-terminal only domain (PKR-CT) are shown in FIG. 1B.
(§1) HEK293T cells were transfected with RAN protein-expressing and PKR-expressing constructs.
(§2) HEK293T cells were cultured in DMEM medium supplemented with 10% fetal bovine serum and incubated at 37° C. in a humid atmosphere containing 5% CO2. DNA transfections were performed using Lipofectamine 2000 Reagent (Invitrogen) according to the manufacturer's instructions.
(§3) Transfected cells in each well of a six-well tissue-culture plate were rinsed with PBS and lysed in 300 μL RIPA buffer with protease inhibitor cocktail for 45 min on ice. DNA was sheared by passage through a 21-gauge needle. The cell lysates were centrifuged at 16,000×g for 15 min at 4° C., and the supernatant was collected. The protein concentration of the cell lysate was determined using the protein assay dye reagent (Bio-Rad). Twenty micrograms of protein were separated in a 4-12% NuPAGE Bis-Tris gel (Invitrogen) and transferred to a nitrocellulose membrane (Amersham). The membrane was blocked in 5% dry milk in PBS containing 0.05% Tween-20 (PBS-T) and probed with the anti-Flag (1:2000), anti-Myc (1:1000), anti-HA (1:1000), or rabbit polyclonal antibodies (1:1000) in blocking solution. After the membrane was incubated with anti-rabbit or anti-mouse HRP-conjugated secondary antibody (Amersham), bands were visualized by the ECL plus Western Blotting Detection System (Amersham).
Next, the effects of PKR overexpression and inhibition on RAN protein accumulation across several types of repeat expansions were tested. […] For CAGEXP expressing cells, PKR-WT overexpression led to increased p-PKR and p-eIF2α, and increased RAN polyAla protein levels. In contrast, expression of the dominant-negative PKR-K296R mutation decreased polyAla RAN protein levels. […] The polyGln reading frame, which contains an AUG initiation codon, is not affected by PKR (FIG. 7A).
. […] Protein blots were run on protein lysates from HEK293T cells transfected with various repeat expansion constructs shown in FIG. 13A. In FIG. 13B, the lanes labeled KMQ, show: RAN poly-Ser-Flag, RAN poly-Ala-HA, ATG initiated polyGln-Myc. In FIG. 13B the lanes labeled KMQ has a methionine encoding ATG immediately 5′ to the CAG repeat expansion and located within the polyGln reading frame. The lanes labeled KKQ indicate the KKQ vector contains a CAG expansion without an AUG initiation codon, and indicates: RAN polySer-Flag, RAN polyAla-HA, RAN polyGln-Myc. These constructs contain epitope tags that are incorporated into the C-terminal regions of the ATG-initiated poly-Gln and non-ATG initiated RAN proteins (poly-Gln, poly-Leu-Pro-Ala-Cys and poly-Gly-Pro) which are expressed across these repeat expansions. The lane labeled CCTG expresses the following RAN proteins: RAN polyLPAC-Flag, RAN polyLPAC-HA, RAN polyLPAC-Myc. The lane labeled G4C2 is designed to detect the following RAN proteins: RAN polyGP-Flag, RAN polyGR-HA, RAN polyGA-Myc. […]

[2] = biological target: T1, PKR (Homo sapiens, UniProt P19525); assay: Protein blot of phospho-PKR (T446 and T451) in HEK293T cells transfected with repeat expansion constructs; assay type: cell-based; conditions: for G4C2 repeat-expansion induced p-PKR levels: HEK293T, G4C2 expansion construct, dose series
T1 construct: endogenous in cells; host or cells: HEK293T
T1 sequence (P19525 whole entry): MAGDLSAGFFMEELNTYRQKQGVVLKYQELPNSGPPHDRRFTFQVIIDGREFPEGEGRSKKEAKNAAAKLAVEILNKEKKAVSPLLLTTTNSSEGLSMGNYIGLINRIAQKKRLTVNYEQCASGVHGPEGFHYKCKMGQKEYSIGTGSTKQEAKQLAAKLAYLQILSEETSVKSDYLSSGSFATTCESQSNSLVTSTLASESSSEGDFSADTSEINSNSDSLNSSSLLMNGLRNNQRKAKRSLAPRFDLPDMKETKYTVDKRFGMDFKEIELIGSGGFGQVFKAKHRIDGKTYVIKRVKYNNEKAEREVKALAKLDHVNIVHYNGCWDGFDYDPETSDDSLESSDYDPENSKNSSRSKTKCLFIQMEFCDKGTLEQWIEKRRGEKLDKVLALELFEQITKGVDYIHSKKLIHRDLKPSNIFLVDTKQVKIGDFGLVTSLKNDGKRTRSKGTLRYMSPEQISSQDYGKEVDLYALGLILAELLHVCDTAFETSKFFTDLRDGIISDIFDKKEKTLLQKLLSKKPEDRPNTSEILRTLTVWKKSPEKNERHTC
Description: as §2, §3
Therefore, the ability of other RAN positive repeat expansions to activate PKR and the role of PKR on RAN translation were tested.
[…]. Transient transfections of expansion constructs treated with or without metformin were performed. […].

[3] = system: glycine-proline (GP) RAN protein; assay: GP RAN protein levels in peripheral blood leukocytes of a C9ORF72 expansion-positive human subject; assay type: in vivo; conditions: single human subject; 500 or 1000 mg/day Metformin Hydrochloride Extended Release Tablets; 10 to 30 days; vs pretreatment
Text: […]. […] […].

[4] = system: eIF2α; assay: Immunoblot of phosphorylated eIF2α in transfected HEK293T cells; assay type: cell-based; conditions: HEK293T co-transfected with repeat expansion constructs
Description: as §1, §2
as §3, with “System (Amersham). […]” for “System (Amersham).”

[5] = system: C9-500 BAC mice; assay: ICV injection of AAV expressing PKR-K296R in C9-500 BAC transgenic mice; assay type: in vivo; conditions: for GA RAN protein aggregates in the retrosplenial cortex (IHC): analysis at 3 months; for open field center time: vs C9 EGFP control animals
Text: Schematic diagrams of AAV2/9 constructs used for rAAV injections into a BAC transgenic mouse model of C9orf72 ALS/FTD containing 500 G4C2 repeats (C9-500 BAC) are shown in FIG. 3A. Briefly, animals were sacrificed for analysis at 3 months of age after […] intracerebral ventricular (ICV) injections with AAV2/9 virus expressing either EGFP or the dominant negative form of PKR(K296R).
Representative immunohistochemical (IHC) staining of GA RAN protein aggregates in sections of the retrosplenial cortex from C9-500 BAC mice (FIG. 3B, left). Quantification of GA RAN protein aggregates was also performed (FIG. 3B, right). Analysis was done in a blinded fashion.
AAV vectors expressing the PKR under the control of the cytomegalovirus enhance/chicken beta actin (CBA) promoter, a woodchuck hepatitis virus post-transcriptional-regulatory element (WPRE), and the bovine growth hormone polyA were generated by Polyethylenimine Linear (PEI, Polysciences) transfection into HEK293T cells. Cells were co-transfected with AAV helper plasmids pDP8.ape to produce recombinant adeno-associated viral (rAAV) vector rAAV2/8.
Neonatal pups were injected within 0-12 hours after birth. The naive pups were covered in aluminum foil and completely surrounded in ice for 3-4 minutes, resulting in the body temperature being lowered to <10° C. The pups were considered completely cryoanesthetized when all movement stops and the skin color changes from pink to purple. 2 μl of virus ([…]) was slowly injected into the ventricle using 10 μl syringes (30 degree beveled). After injection pups were allowed to completely recover on a warming blanket and then returned to the home cage.
rAAV-mediated delivery of dominant negative PKR-K296R, or EGFP as a control, was performed using intracerebroventricular (ICV) injections at P0 in C9orf72 ALS/FTD BAC transgenic mice (C9-BAC) and non-transgenic (NT) littermate controls. A schematic depiction of each construct is described in FIG. 10A. Four groups of animals (EGFP/C9, EGFP/NT, PKR-K296R/C9 and PKR-K296R/NT) were aged to 3 months. […] Similarly, soluble GP levels, detected by meso-scale detection (MSD) assays, were reduced in brain lysates from C9 PKR-K296R treated animals compared to C9 EGFP controls.

[6] = HEK293T, CAG expansion construct

O=C(COc1ccc(Cl)cc1)NC1CCC(NC(=O)COc2ccc(Cl)cc2)CC1 (stereo not drawn) [ISRIB, reference compound]
polyAla RAN protein levels ([1]; HEK293T transfected with expanded CAG and PKR-WT constructs): reduces
polyAla RAN protein levels ([1]; HEK293T transfected with expanded CAG and PKR-WT constructs, listed as ISIRB): decrease

CCCCNC(=N)NC(=N)N [buformin, reference compound]
RAN polyGP levels [1]: dose-dependent inhibition
G4C2 repeat-expansion induced p-PKR levels [2]: dose-dependent inhibition

CN(C)C(=N)NC(=N)N [metformin, reference compound]
RAN protein levels ([1]; HEK293T cells expressing CAG, CCUG or G4C2 expansion RNAs, protein blot): decreases
RAN polyGP levels [1]: dose-dependent inhibition
polyAla RAN protein levels [1, 6]: reduced RAN protein levels
polyLPAC RAN protein levels ([1]; HEK293T): reduced RAN protein levels
polyGP RAN protein levels ([1]; HEK293T): reduced RAN protein levels
PKR phosphorylation at T446 and T451 ([2]; HEK293T transiently transfected with expansion constructs, with or without metformin): decreases
G4C2 repeat-expansion induced p-PKR levels [2]: dose-dependent inhibition
glycine-proline (GP) RAN protein levels in leukocyte lysates from peripheral blood [3]: Dose dependent reduction

[H]/N=C(/N)N/C(=N/[H])NCCc1ccccc1 [phenformin, reference compound]
RAN polyGP levels [1]: dose-dependent inhibition
G4C2 repeat-expansion induced p-PKR levels [2]: dose-dependent inhibition

B1: TARBP2: PKR inhibitor, transactivation response element RNA-binding protein, overexpressed by co-transfection (protein, UniProt Q15633 1-366, looked up)
RISC-loading complex subunit …: MSEEEQGSGTTTGCGLPSIEQMLAANPGKTPISLLQEYGTRIGKTPVYDLLKAEGQAHQPNFTFRVTVGDTSCTGQGPSKKAAKHKAAEVALKHLKGGSMLEPALEDSSSFSPLDSSLPEDIPVFTAAAAATPVPSVVLTRSPPMELQPPVSPQQSECNPVGALQELVVQKGWRLPEYTVTQESGPAHRKEFTMTCRVERFIEIGSGTSKKLAKRNAAAKMLLRVHTVPLDARDGNEVEPDDDHFSIGVGSRLDGLRNRGPGCTWDSLRNSVGEKILSLRSCSLGSLGALGPACCRVLSELSEEQAFHVSYLDIEELSLSGLCQCLVELSTQPATVCHGSATTREAARGEAARRALQYLKIMAGSK
RAN polyAla levels expressed from CAG and CUG (CTG) expansions ([1]; HEK293T co-transfection, overexpression): decreases
polyLPAC RAN protein levels ([1]; HEK293T): decreases
steady state levels of eIF2α-P (p-eIF2α) [4]: reduces; also recorded: decrease

B2: PKR-K296R: dominant negative K296R mutant form of protein kinase R, expressed from plasmid or AAV vector (protein, UniProt P19525 2-551, looked up, variant K296R)
Interferon-induced, …: AGDLSAGFFMEELNTYRQKQGVVLKYQELPNSGPPHDRRFTFQVIIDGREFPEGEGRSKKEAKNAAAKLAVEILNKEKKAVSPLLLTTTNSSEGLSMGNYIGLINRIAQKKRLTVNYEQCASGVHGPEGFHYKCKMGQKEYSIGTGSTKQEAKQLAAKLAYLQILSEETSVKSDYLSSGSFATTCESQSNSLVTSTLASESSSEGDFSADTSEINSNSDSLNSSSLLMNGLRNNQRKAKRSLAPRFDLPDMKETKYTVDKRFGMDFKEIELIGSGGFGQVFKAKHRIDGKTYVIRRVKYNNEKAEREVKALAKLDHVNIVHYNGCWDGFDYDPETSDDSLESSDYDPENSKNSSRSKTKCLFIQMEFCDKGTLEQWIEKRRGEKLDKVLALELFEQITKGVDYIHSKKLIHRDLKPSNIFLVDTKQVKIGDFGLVTSLKNDGKRTRSKGTLRYMSPEQISSQDYGKEVDLYALGLILAELLHVCDTAFETSKFFTDLRDGIISDIFDKKEKTLLQKLLSKKPEDRPNTSEILRTLTVWKKSPEKNERHTC
polyAla RAN protein levels [1, 6]: decreased
polyAla RAN protein levels ([1]; HEK293T, CAG expansion construct, listed as K296R PKR): decreases
ATG-initiated polyGln protein levels ([1]; HEK293T, CAG expansion with ATG in polyGln frame): not affected
polyQAGR RAN protein levels ([1]; HEK293T, CAGG expansion construct): decreased
polyLPAC RAN protein levels ([1]; HEK293T): decreased
polyLPAC RAN protein levels ([1]; HEK293T, listed as K296R PKR): decreases
polyGP RAN protein levels ([1]; HEK293T): decreased
polyGP RAN protein levels ([1]; HEK293T, listed as K296R PKR): decreases
steady state levels of eIF2α-P (p-eIF2α) [4]: decreases
DigiGait parameters (of 15) significantly different between C9 PKR-K296R and NT treatment groups ([5]; 12 weeks): 2
DigiGait parameters improved, of 15 that differed between untreated C9-500 and NT EGFP controls ([5]; 12 weeks): nine of these parameters improved
soluble GP levels in brain lysates (MSD) ([5]; neonatal ICV AAV injection, 3 months, vs C9 EGFP controls): reduced
GA RAN protein aggregates in the retrosplenial cortex (IHC) ([5]; neonatal ICV AAV injection, vs C9 EGFP controls): decreased numbers of GA aggregates
GA RAN protein aggregates in the retrosplenial cortex (IHC) ([5]; neonatal ICV AAV injection, vs C9 EGFP controls, listed as PKR(K296R)): fewer GA RAN protein aggregates
open field center time [5]: increased center time
open field center time ([5]; listed as PKR(K296R)): reduced center time

Source: patent US12473545B2, “Regulation of RAN translation by PKR and eIF2α-P pathways” (University of Florida Research Foundation, Incorporated, priority 2017, dated 2025)
